The values that follow are results of earlier work, collected in PMC11558822, “Myc 9aaTAD activation domain binds to mediator of transcription with superior high affinity” (Molecular Medicine, 2024).

The target in the data set is CBP KIX (Homo sapiens) (UniProt Q92793). The data set can be described thus: ITC.
Sequence of CBP KIX (Homo sapiens) (Q92793 584-669): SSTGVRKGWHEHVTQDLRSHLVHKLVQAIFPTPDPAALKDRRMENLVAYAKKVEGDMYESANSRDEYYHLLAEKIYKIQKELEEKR

Consider MLL 9aaTAD (from UniProt Q03164), for which the Kd is 1400 nM.
